Measurements as given in the domain aggregation screens of Martell et al. (2025).

test: soluble fraction after stress (log2 fold change); higher = more stays soluble; pooled small domains, quantitative proteomics; conditions: stress: 75 degC
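Note: 20 min heating vs room temperature control held 20 min.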

Q: With “HMRILGIDPGTRITGYGIIDIEGNRLRHVDNGIIKTRSSDALPLRLKVIYDGLTAVLKQYSPQAV” as the sequence, how does the “soluble fraction (log2)” value read?
A: 0.23

Q: Which “soluble fraction (log2)” value does the source give for “HMRIQTVDYNTFISMVEDGKVDAAEIQQQENRILFSDQDQKVYKTAMVPDDDLTQRLLDAGVSTNG” here?
A: 0.726

Q: Which “soluble fraction (log2)” value does the source give for “HMRISKRQLILESAAAIINEKGADYLTLDAVAQRAGISKGGLFYHFKSKDELIKELVNYANN” here?
A: -1.56

Q: Which “soluble fraction (log2)” value does the source give for “HMRISLKAQVYEYLKQAIINGDLKVGEIYSEQYFADKLSISRTPVREAILQLQHENMVEVKANRGIIVK” here?
A: -2.73

Q: Which “soluble fraction (log2)” value does the source give for “HMRITTKNYFKAISEVGFENLPEVLKKSHLVIEEKTNKGNDWGIYENDAEAKKVFDLAFDKLEEFIDRKED” here?
A: 0.461

Q: For “HMRIVQTDYRNFLSQVESGAVRSVQIDETQIRYTALDSGGKEIVYNTGKVDDPGLVNRLYDAGVEFSQVIP”, which “soluble fraction (log2)” value is on record?
A: -0.132

Q: Which “soluble fraction (log2)” value does the source give for “HMRKATEVPFTAFKDSIENSHGKLSKAGLARHLADEYGMSQRNMERRINNLIDNKTIKYGNEGGLVWIG” here?
A: -0.104

Q: Which “soluble fraction (log2)” value does the source give for “HMRKDWTPGAFVEAFVNDTPATRSTILAKAVSAGLSRWAADNLLRTADNDGLMVRQGSGKRNEPFTYRRGP” here?
A: -0.257

Q: With “HMRKEEFIRELVLELKQNVSEQVILEQKRFYEEYILTEVRGGKTEEEVIASLSEPRLLAKSIIDAAEAGGD” as the sequence, how does the “soluble fraction (log2)” value read?
A: -1.3

Q: With “HMRKKDGEAYVLPRPLKKGDSVLIYDIDKKGTVLQPPEKGGKTALIQAGIIQTRVPVSNLRLLE” as the sequence, how does the “soluble fraction (log2)” value read?
A: 0.537

Q: For “HMRKKIIAQTLEEIRKSKGYSQKQVAAFIKVKPTTYNTYESGRTEPPAEILVRLSYLYRTPVDTLVQRDR”, which “soluble fraction (log2)” value is on record?
A: -2.13

Q: With “HMRKMNDAVFYVEMSRPKRGYYTATYKLITRNPNSLPEHEITRRFFQMLEETIRKNPPYYLWTH” as the sequence, how does the “soluble fraction (log2)” value read?
A: -0.527

Q: Which “soluble fraction (log2)” value does the source give for “HMRKPISQEIVDEVLKLAKNNPDWGYDRIAGVMKYLKYDVSATTVRHILDDNGIVPDPERRLR” here?
A: 0.23

Q: For “HMRKRLLQLVHIGKSQLGMDDETYRSLLSQQFYQNSAKNISYSELVKLVKILQQKGAKIRLPH”, which “soluble fraction (log2)” value is on record?
A: -2.17

Q: For “HMRKVVLEEKEANYYAEPNSESELLGVLKRGIHLTVTDVKKEAGSDGWVKLVHPDGQEGWISGRARIRV”, which “soluble fraction (log2)” value is on record?
A: -0.212

Q: Which “soluble fraction (log2)” value does the source give for “HMRKYKIKEELPDNIYKIIQDNPGIVQKDIYDILGREYQQNISSYIYSMDKNGVIKRDKHGNSYKLYL” here?
A: -0.119

Q: Which “soluble fraction (log2)” value does the source give for “HMRLATSELVYRIRALIRDQELQPGERLGSERALAQSLGISRSDLRMALAVLEASHEVIRKIGRAGGIVVS” here?
A: -3.18

Q: With “HMRLHSSGEDYLKAIFILEAQHSSVRSVEVAEYMNVSKASVSHAVALLKKNGFLKMNQDYDLTER” as the sequence, how does the “soluble fraction (log2)” value read?
A: -0.163

Q: For “HMRLIALPSVTDISIRQAEATLMSIGIKVSSIQYAPSEYKDLVLEVKYRGQSIIQGAKIPEGSSVVLVAGN”, which “soluble fraction (log2)” value is on record?
A: -3.21

Q: For “HMRLPLYLALAQTLRQEIDAKQYKIGAHLPPEDQLVVKYGVSRHTVRQALQELKNEGLITSKAGIGTIVSS”, which “soluble fraction (log2)” value is on record?
A: -1.56

Q: For “HMRLPQEVWEKIRAAYEAHGLSFSELAEMYGVNKSNISRRAKAEGWNQAETQRLITATVENE”, which “soluble fraction (log2)” value is on record?
A: 0.374

Q: With “HMRLREETRKVDKTGLIQVDGRHYRVPDEYSQKDVQILMDDNSIMVYRKGDFVIELDKETSVYMPH” as the sequence, how does the “soluble fraction (log2)” value read?
A: 0.347

Q: For “HMRMETRILTADESGIRLDAFLASRLAVSRSLAASLIDDGNVTLNGTVPKKKTAVNVGDILEVAMP”, which “soluble fraction (log2)” value is on record?
A: -0.987

Q: Which “soluble fraction (log2)” value does the source give for “HMRMLTKRRQDLLLELLEERGSITVSEVKDMLDASESTIRRDITALDEEGKLVKVFGGAVAAR” here?
A: -0.345

Q: With “HMRMSRSARLFDLLHILRSHRRAVSGQALAQQLGISIRTLYRDIASLQAQGAKIEGEPGVGYMLKP” as the sequence, how does the “soluble fraction (log2)” value read?
A: -1.82

Q: With “HMRMTKQRQAVLDELTRVTDFRSAQQIFEDLHSQGHRVGLATIYRSLQGLAEDGSVDTLRSSDGESLY” as the sequence, how does the “soluble fraction (log2)” value read?
A: -0.206

Q: With “HMRMTRQRKVILEELGKVYTHPTADEIYTMVKEKLPNISLGTVYRNLDLLAENNQVLKLETAGNIRRYD” as the sequence, how does the “soluble fraction (log2)” value read?
A: -0.17

Q: With “HMRMYDVNEYSDEELHRILDLSSPTDSELEARILQMIQKYKYTNGGDNEKMAVFFENIYHHFFD” as the sequence, how does the “soluble fraction (log2)” value read?
A: -1.65

Q: For “HMRNAAGGIYGWMTLHQVAETVKLTEEEVIAITNLPAGIPRDVSLKNIEGVNDEELRALLEAYLEKQ”, which “soluble fraction (log2)” value is on record?
A: -1.34

Q: For “HMRNISLSLRWHSGEWTADRLKSEVLALPGAMDMTVFEPQSQAYLRVEQGFDTKLLPAGIDVH”, which “soluble fraction (log2)” value is on record?
A: -1.31

Q: With “HMRNNKLRRANKLKTEFENLPHIGKKRAHVLLKAFGSTENLKMTTAQALSEAAKISLKQAEEVLEAVRG” as the sequence, how does the “soluble fraction (log2)” value read?
A: -0.466

Q: For “HMRNQIRAVITPVPNQERYTVEMTIDDDAGNLLTLQMAAPDRQQAAEFAQRFQKHPEALYHAVLSVLL”, which “soluble fraction (log2)” value is on record?
A: -0.214

Q: For “HMRNSFTVENTGERLDVFLTGQMPEFSRSHIQKLIASGQAWVNGVNRKGNFKLKPHDVVELEVPEPE”, which “soluble fraction (log2)” value is on record?
A: 0.381

Q: With “HMRNSVQREWIYDYIQRQDAHLSADEIYEGLLKEGKNISLATVYRNLSILVDEYKIASVMTDSKKQVYDK” as the sequence, how does the “soluble fraction (log2)” value read?
A: -2.56

Q: For “HMRNTPQRRHAILALLSEQGEVSVDALAKRFSTSEVTIRKDLAAMESHGLLLRRYGGAVPMPQELI”, which “soluble fraction (log2)” value is on record?
A: -1.63

Q: With “HMRPEVALSSRELEILEALATGKSNKELAQRLFISEATVKTHLIHIYQKLGVDTRTAAVTVARERKL” as the sequence, how does the “soluble fraction (log2)” value read?
A: -2.3

Q: With “HMRPEVTEHLKTADAILHGGDINRQSIVDELRQYAPLYIVRGNNDKDWAEAIPHDLTVTLGGVTFFMVHNR” as the sequence, how does the “soluble fraction (log2)” value read?
A: -0.0851

Q: For “HMRPFAMNLLEKHKADIEVWLKHPNMTNTQIKRLLEELGTSVSVSSIDRFISTSFPKLPKHT”, which “soluble fraction (log2)” value is on record?
A: -0.121

Q: With “HMRPIWVQLADDFRHRIVSGQWPPGSKIPSVRELAAETGVNPNTVQRALGALDGEGLTATERTAGRFVTT” as the sequence, how does the “soluble fraction (log2)” value read?
A: -0.266

Q: With “HMRPKVADIDYFDGKTFTIEDGSKHSITTSEAKKIYFYLVKNGYVDDESHVTDAYRSAATSGTLA” as the sequence, how does the “soluble fraction (log2)” value read?
A: 0.0416

Q: Which “soluble fraction (log2)” value does the source give for “HMRPQELSSLNTNQMRLYNSLPEAFITAEAKDIADKLRYSERSLFRFLNESNLFTKTEHGSYAKKA” here?
A: 0.0879

Q: Which “soluble fraction (log2)” value does the source give for “HMRPQYVDLFTKLSAEEAGAITSKLKELKVEYQLADNGSTIKVPQKDAAEIRLELANEGLPA” here?
A: 0.138

Q: Which “soluble fraction (log2)” value does the source give for “HMRPRQDRSEETRDRILDAVVELIAERGLAGVSHRAVADRAGVSLSATSYYFGSKAELERAALEEHYRR” here?
A: -0.881

Q: For “HMRPSGEAVNAAYRLLKGANPSGNEGDLIQRAQEVAAILPKLNRSSAAAFAKDAKANGLTQAETIALWKGS”, which “soluble fraction (log2)” value is on record?
A: 0.135

Q: For “HMRPTYRTRLEVLINNPAISGRDLDFAQSLLSYYERKGRLSAGRVKWVTTLEERYSPENLAASAAK”, which “soluble fraction (log2)” value is on record?
A: -0.856

Q: For “HMRQFEPVEGYNPYADKNELHGYEYWGAKFADSRSPEETAWIKQQIDDENEDRRFISEAGLA”, which “soluble fraction (log2)” value is on record?
A: 0.0889

Q: With “HMRQQQISAAIKTSVNGTVDYYVRRLPERDPRGDFLEVWDDLQKVIQAAHGIQVSHDELYEYFRRLK” as the sequence, how does the “soluble fraction (log2)” value read?
A: -0.833

Q: For “HMRQQSLHSLYRDHHSWLQNWLRRQLGNTWDAADLSQDTFIKVLASSQSVAEIREPRAYLLTVGKRL”, which “soluble fraction (log2)” value is on record?
A: -0.294

Q: Which “soluble fraction (log2)” value does the source give for “HMRQSDIAAAFRESILRSSKGFQYLHTRDFVTALRRRGIHLSEVEANSWIAREKTYFVDSALDHSENRLWI” here?
A: -1.65

Q: Which “soluble fraction (log2)” value does the source give for “HMRQSIHTALQLLTPREEEVLNLLVSGKSNKQVAEHFSLSSKTIERHRSSVMRKLDASSFAQLVRIAALR” here?
A: -3.27

Q: Which “soluble fraction (log2)” value does the source give for “HMRQYPSGVFKEEGVKAVYIHAGTPFLVIAAQYKIPLARLFEWNNLLPSTEARISQVIYLERPG” here?
A: -3.92

Q: For “HMRRARVAGKGHFTGEDAMAVYRELEALFGETETLYLPGHRPFEAVLSKLALIGVPEKNTVPYTFAFVET”, which “soluble fraction (log2)” value is on record?
A: -0.392

Q: Which “soluble fraction (log2)” value does the source give for “HMRREIRLTVTEEIVLMKFLLTQIPYKNRDNFKTLLNDRQIRVNGSVVTWYNHPLKPGQEVTIGWFKM” here?
A: -0.264

Q: With “HMRRPRGVFNLVPGKRFGFITPDGGGEDVFAHLANVRAGHVAEDRNAVEYGIGRGPDGRDQAVDIVPMP” as the sequence, how does the “soluble fraction (log2)” value read?
A: -0.329

Q: For “HMRRQRNPEIFDQLVNKFHFTFTQTQQLKQLIKRWHMLFPGKSLKSAIQGYKSAKEILTYINDSLDVVE”, which “soluble fraction (log2)” value is on record?
A: 0.213
